First the molecules themselves.
B1: TL1W24 (His-TEV-hTL1A 72-251 F209A) (ligand)
chain: HHHHHHENLYFQGLKGQEFAPSHQQVYAPLRADGDKPRAHLTVVRQTPTQHFKNQFPALHWEHELGLAFTKNRMNYTNKFLLIPESGDYFIYSQVTFRGMTSECSEIRQAGRPNKPDSITVVITKVTDSYPEPTQLLMGTKSVCEVGSNWAQPIYLGAMFSLQEGDKLMVNVSDISLVDYTKEDKTFFGAFLL
notes: also called TL1W24 (F209A)
B2: TL1W33 (His-TEV-hTL1A 72-251 R103A) (ligand)
chain: B1 chain with R45A, A151F
notes: also called TL1W33 (R103A)
B3: TL1W29 (His-TEV-hTL1A 72-251 P189A) (ligand)
chain: B1 chain with P131A, A151F
notes: also called TL1W29 (P189A)
B4: TL1W30 (His-TEV-hTL1A 72-251 N112E) (ligand)
chain: B1 chain with N54E, A151F
notes: also called TL1W30 (N112E)
B5: TL1W44 (His-TEV-TL1A P189K) (ligand)
chain: B1 chain with P131K, A151F
notes: also called TL1W44 (P189K)
B6: TL1W28 (His-TEV-hTL1A 72-251 E190G) (ligand)
chain: B1 chain with E132G, A151F
notes: also called TL1W28 (E190G)
B7: TL1W85 (His-TEV-TL1A G124S) (ligand)
chain: B1 chain with G66S, A151F
notes: also called TL1W85 (G124S)
B8: TL1W39 (His-TEV-TL1A L123G) (ligand)
chain: B1 chain with L65G, A151F
notes: also called TL1W39 (L123G)
B9: TL1W94 (His-TEV-TL1A M158E) (ligand)
chain: B1 chain with M100E, A151F
notes: also called TL1W94 (M158E)
B10: TL1W43 (His-TEV-TL1A Y188S) (ligand)
chain: B1 chain with Y130S, A151F
notes: also called TL1W43 (Y188S)
B11: TL1W81 (His-TEV-TL1A K111S) (ligand)
chain: B1 chain with K53S, A151F
notes: also called TL1W81 (K111S)
B12: TL1W84 (His-TEV-TL1A E120H) (ligand)
chain: B1 chain with E62H, A151F
notes: also called TL1W84 (E120H)
B13: TL1W47 (His-TEV-TL1A E241A) (ligand)
chain: B1 chain with A151F, E183A
notes: also called TL1W47 (E241A)
B14: TL1W37 (His-TEV-TL1A L123E) (ligand)
chain: B1 chain with L65E, A151F
notes: also called TL1W37 (L123E)
B15: TL1W32 (His-TEV-hTL1A 72-251 Y188A) (ligand)
chain: B1 chain with Y130A, A151F
notes: also called TL1W32 (Y188A)
B16: TL1W40 (His-TEV-TL1A L123S) (ligand)
chain: B1 chain with L65S, A151F
notes: also called TL1W40 (L123S)
B17: TL1W90 (His-TEV-TL1A R156K) (ligand)
chain: B1 chain with R98K, A151F
notes: also called TL1W90 (R156K)
B18: TL1W93 (His-TEV-TL1A M158K) (ligand)
chain: B1 chain with M100K, A151F
notes: also called TL1W93 (M158K)
B19: TL1W79 (His-TEV-TL1A R103E) (ligand)
chain: B1 chain with R45E, A151F
notes: also called TL1W79 (R103E)
B20: TL1W25 (His-TEV-hTL1A 72-251 N207A) (ligand)
chain: B1 chain with N149A, A151F
notes: also called TL1W25 (N207A)
B21: TL1W78 (His-TEV-TL1A R103H) (ligand)
chain: B1 chain with R45H, A151F
notes: also called TL1W78 (R103H)
B22: TL1W31 (GD: Single chain MMB in CBIS; His-TEV-hTL1A 72-251 R103Q) (ligand)
chain: B1 chain with R45Q, A151F
notes: also called TL1W31 (R103Q)
B23: TL1W41 (His-TEV-TL1A E120A) (ligand)
chain: B1 chain with E62A, A151F
notes: also called TL1W41 (E120A)
B24: TL1W42 (His-TEV-TL1A F114A) (ligand)
chain: B1 chain with F56A, A151F
notes: also called TL1W42 (F114A)
B25: TL1W82 (His-TEV-TL1A K111E) (ligand)
chain: B1 chain with K53E, A151F
notes: also called TL1W82 (K111E)
B26: TL1W46 (His-TEV-TL1A T239W) (ligand)
chain: B1 chain with A151F, T181W
notes: also called TL1W46 (T239W)
B27: TL1W87 (His-TEV-TL1A G124D) (ligand)
chain: B1 chain with G66D, A151F
notes: also called TL1W87 (G124D)
B28: TL1W108 (His-TEV-TL1A S187A) (ligand)
chain: B1 chain with S129A, A151F
notes: also called TL1W108 (S187A)

As usually defined, the EC50 is the concentration giving half of the maximal effect.

Numbering of substitutions follows the chain as printed. Numbers in names are those of the source.

For the first experiment, the target named is T1, DcR3 (UniProt O95407 30-300, limits assumed).
T1 construct: the construct is not described; also called decoy receptor DcR3; TNFRSF6B
T1 sequence (looked up): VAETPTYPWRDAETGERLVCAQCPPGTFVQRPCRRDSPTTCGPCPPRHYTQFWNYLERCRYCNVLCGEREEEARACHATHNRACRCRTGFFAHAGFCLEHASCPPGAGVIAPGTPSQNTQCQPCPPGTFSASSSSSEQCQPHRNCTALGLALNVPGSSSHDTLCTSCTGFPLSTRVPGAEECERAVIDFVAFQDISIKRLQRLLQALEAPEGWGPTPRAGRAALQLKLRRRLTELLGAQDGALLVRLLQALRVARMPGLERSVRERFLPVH
In words: ELISA, DcR3.
As to B1, the concentration for a half-maximal effect (EC50) was 30.7 nM and the “Rel EC50” value is 6.7 ratio (head: nM).
On to B2, for which the concentration for a half-maximal effect (EC50) was 3.3 nM and the “Rel EC50” value is 0.7 ratio (head: nM).
Consider B3, for which the EC50 worked out at 7.6 nM and the “Rel EC50” value is 1.7 ratio (head: nM).
Take B4: it took 4.7 nM to reach a half-maximal effect (EC50) and the “Rel EC50” value is 1 ratio (head: nM).
In the case of B5, the EC50 worked out at 59.1 nM and the “Rel EC50” value was 12.8 ratio (head: nM).
On to B6, for which a half-maximal response (EC50) required 5.7 nM and the “Rel EC50” value is 1.2 ratio (head: nM).
As for B7, the half-maximal effective concentration (EC50) is 57.1 nM and the “Rel EC50” value was 12.4 ratio (head: nM).
B8: the concentration for a half-maximal effect (EC50) came to 38.2 nM and the “Rel EC50” value is 8.3 ratio (head: nM).
B9: the response was half-maximal at 18.7 nM (EC50) and the “Rel EC50” value was 4.1 ratio (head: nM).
The corresponding values for B10 are 72.2 nM and 15.7 ratio (head: nM).
In the case of B11, a half-maximal effect (EC50) was put at 50.9 nM and the “Rel EC50” value is 11.1 ratio (head: nM).
Take B12: the 50% effective concentration (EC50) worked out at 55.7 nM and the “Rel EC50” value is 12.1 ratio (head: nM).
For the molecule B13, the EC50 is 1310 nM and the “Rel EC50” value is 285 ratio (head: nM).
Turning to B14, a half-maximal response (EC50) required 24.3 nM and the “Rel EC50” value was 5.3 ratio (head: nM).
B15: a half-maximal effect (EC50) was put at 7.6 nM and the “Rel EC50” value was 1.7 ratio (head: nM).
Turning to B16, the EC50 was 16.4 nM and the “Rel EC50” value is 3.6 ratio (head: nM).
The matching figures for B17: 11 nM and 2.4 ratio (head: nM).
Take B18: the half-maximal effective concentration (EC50) amounted to 55.9 nM and the “Rel EC50” value was 12.1 ratio (head: nM).
On to B19, for which a half-maximal response (EC50) required 7.1 nM and the “Rel EC50” value is 1.5 ratio (head: nM).
For the molecule B20, the EC50 came out at 3.7 nM and the “Rel EC50” value was 0.8 ratio (head: nM).
Turning to B21, the EC50 amounted to 8.1 nM and the “Rel EC50” value was 1.8 ratio (head: nM).
As for B22, a half-maximal effect (EC50) was put at 2.5 nM and the “Rel EC50” value was 0.5 ratio (head: nM).
The matching figures for B23: 32.6 nM and 7.1 ratio (head: nM).
In the case of B24, the 50% effective concentration (EC50) is 11.4 nM and the “Rel EC50” value was 2.5 ratio (head: nM).
For the molecule B25, the EC50 was 10.6 nM and the “Rel EC50” value is 2.3 ratio (head: nM).

The target in the next experiment is T2, Recombinant DR3-Fc (R&D Systems, cat. #943-D3) (UniProt Q93038 25-199, limits assumed).
T2 construct: dimeric MW~92 kDa; also called DR3 receptor; Fc-DR3; not shown: Fc part of the bought fusion
T2 sequence (looked up): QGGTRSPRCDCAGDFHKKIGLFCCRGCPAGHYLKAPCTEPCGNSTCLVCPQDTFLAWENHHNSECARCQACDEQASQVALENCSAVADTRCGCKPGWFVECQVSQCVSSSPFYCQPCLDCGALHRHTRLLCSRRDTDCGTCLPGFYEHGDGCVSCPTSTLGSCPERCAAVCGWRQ
In words: ELISA, DR3-Fc immobilized. The protocol:
All ELISA-based measurements were collected in triplicate, and error values report the standard error between measurements. Recombinant DR3-Fc (R&D Systems, cat. #943-D3), dimeric MW˜92 kDa, was non-specifically immobilized onto plates (Nunc maxisorp, cat. #436110) in 100 μL DR3-Fc, diluted to 10 μg/mL onto a 96-well White Maxisorp plate (Nunc, cat #436110) (O/N, 4° C.). Plates were block for 1 hour at room temperature with 250 μl/well of casein buffer and blocking buffer was removed. 50 μL of TL1A variants were diluted in StartingBlock PBS (Thermo Fisher Scientific), at 25 μg/mL, diluting 3× over each well, according to the plate map description for 20160623) per well on a 96-well White Maxisorp plate (Nunc, cat #: 436110) (overnight at 4° C.).
Plates were washed three times with TBST. 100 μl/well polyclonal rabbit anti-human TL1A-biotin antibody (diluted 1:1000 in Starting Block PBS) was added and plates were incubated for 1 hour at room temperature with shaking at 150 rpm. TL1A-biotin antibody was removed and 100 μl/well streptavidin-HRP conjugate (diluted 1:10,000 in Starting Block PBS) was added to plates. Plates were incubated for 1 hour at room temperature with shaking at 150 rpm. Plates were washed three times with TBST. 100 μl/well POD Chemiluminescence substrate (Roche, cat #: 11582950001) was added immediately prior to reading plate luminescence using a Molecular Devices M5 plate reader with a delay setting of 100 ms.
Variants of TL1A were generated and tested for binding to DR3 and DcR3 by ELISA as described.
(In general: In an ELISA, binding on a coated surface is turned into a signal by an enzyme label.)
B1: the EC50 stood at 281 nM and the “Rel EC50” value was 10.7 ratio (head: nM).
With B2, the EC50 worked out at 25 nM and the “Rel EC50” value is 1 ratio (head: nM).
With B26, the EC50 was found to be 284 nM and the “Rel EC50” value is 10.8 ratio (head: nM).
For the molecule B3, the EC50 came out at 710 nM and the “Rel EC50” value is 27.1 ratio (head: nM).
Consider B4, for which the EC50 stood at 16.4 nM and the “Rel EC50” value is 0.6 ratio (head: nM).
B5: the EC50 came out at 168 nM and the “Rel EC50” value is 6.4 ratio (head: nM).
Consider B6, for which the EC50 came out at 22.6 nM and the “Rel EC50” value is 0.9 ratio (head: nM).
Take B7: the EC50 turned out to be 296 nM and the “Rel EC50” value was 11.3 ratio (head: nM).
The matching figures for B8: 184 nM and 7 ratio (head: nM).
As to B9, the EC50 stood at 58.7 nM and the “Rel EC50” value was 2.2 ratio (head: nM).
As for B10, the EC50 came to 207 nM and the “Rel EC50” value was 7.9 ratio (head: nM).
The corresponding values for B27 are 14.8 nM and 0.6 ratio (head: nM).
B11: the half-maximal effective concentration (EC50) stood at 34.4 nM and the “Rel EC50” value is 1.3 ratio (head: nM).
With B12, the EC50 was determined as 182 nM and the “Rel EC50” value was 7 ratio (head: nM).
In the case of B13, the EC50 was 260 nM and the “Rel EC50” value is 9.9 ratio (head: nM).
In the case of B14, the 50% effective concentration (EC50) is 423 nM and the “Rel EC50” value was 16.1 ratio (head: nM).
On to B15, for which the half-maximal effective concentration (EC50) stood at 565 nM and the “Rel EC50” value was 21.6 ratio (head: nM).
With B16, the EC50 stood at 30.7 nM and the “Rel EC50” value was 1.2 ratio (head: nM).
Turning to B17, the EC50 stood at 188 nM and the “Rel EC50” value was 7.2 ratio (head: nM).
Turning to B28, the EC50 is 39.1 nM and the “Rel EC50” value is 1.5 ratio (head: nM).
As to B18, the EC50 is 22.5 nM and the “Rel EC50” value is 0.9 ratio (head: nM).
Consider B19, for which the EC50 came out at 204 nM and the “Rel EC50” value was 7.8 ratio (head: nM).
Regarding B20, the EC50 came out at 13.4 nM and the “Rel EC50” value was 0.5 ratio (head: nM).
For the molecule B21, the EC50 was 77.2 nM and the “Rel EC50” value is 2.9 ratio (head: nM).
With B22, the concentration giving a half-maximal response (EC50) was 9.5 nM and the “Rel EC50” value is 0.4 ratio (head: nM).
In the case of B23, the concentration giving a half-maximal response (EC50) is 100 nM and the “Rel EC50” value was 3.8 ratio (head: nM).
On to B24, for which the EC50 was 77.7 nM and the “Rel EC50” value is 3 ratio (head: nM).
For B25, the EC50 turned out to be 25.8 nM and the “Rel EC50” value was 1 ratio (head: nM).

The values above are taken from patent publication US20220056104A1 (Janssen / Centocor, published 2022).
